# In paper PMC4880445, “Structure of a Holliday junction complex reveals mechanisms governing a highly regulated DNA transaction” (eLife, 2016):
# B1: bacteriophage λ integrase (Int) (enzyme)
# chain: MGRRRSHERRDLPPNLYIRNNGYYCYRDPRTGKEFGLGRDRRIAITEAIQANIELFSGHKHKPLTARINSDNSVTLHSWLDRYEKILASRGIKQKTLINYMSKIKAIRRGLPDAPLEDITTKEIAAMLNGYIDEGKAASAKLIRSTLSDAFREAIAEGHITTNHVAATRAAKSEVRRSRLTADEYLKIYQAAESSPCWLRLAMELAVVTGQRVGDLCEMKWSDIVDGYLYVEQSKTGVKIAIPTALHIDALGISMKETLDKCKEILGGETIIASTRREPLSSGTVSRYFMRARKASGLSFEGDPPTFHELRSLSARLYEKQISDKFAQHLLGHKSDTMASQYRDDRGREWDKIEIK
# notes: Integrase (Int) of bacteriophage λ, tyrosine recombinase; The model holds the NTD (residues 1-55), the NTD-CB linker (56-74) and the CB and catalytic domains (75-356); The NTD of Int-C is not in the model; also called site-specific recombinase; Int-B
# B2: bacteriophage λ Xis protein (natural protein, UniProt P03699 1-72, looked up)
# chain: MYLTLQEWNARQRRPRSLETVRRWVRECRIFPPPVKDGREYLFHESAVKVDLNRPVTGGLLKRIRNGKKAKS
# notes: Virally encoded accessory DNA-bending protein Xis of bacteriophage λ; The 18 C-terminal residues are missing from the model, as in the Xis-DNA crystal structures; also called Xis1.5
# Assays:
# [1] = target: the molecule itself; assay: cryo-EM structure; excisive Holliday junction complex trapped by in vitro recombination of attL and attR (150 nM IHF, 350 nM Xis, 350 nM Int, 25 mM HEPES pH 7.5, room temperature); crosslinked with 0.0035% glutaraldehyde; purified on sucrose gradients; single particle map at about 11 Å; model built by fitting known crystal and NMR structures into the density
# [2] = target: B1; assay: as above; conditions: both partners purified
Binder,stoichiometry N [1],binding result [2]
B1,4,
B2,,binds
